Results reported in US20230363418A1, “COMPOSITION FOR PREVENTING OR TREATING NEUROPSYCHOLOGIC DISEASE, COMPRISING MANF” (CEFO CO., LTD., priority 2020, published 2023).

How the values were obtained:
[1] = test system: primary cultured neural progenitor cells; assay: Immunofluorescence staining of Ki67, Nestin, TuJ1 and NeuN in primary cultured neural progenitor cells; format: cell-based, rat; conditions: MANF 30 ng/ml, compared to the control group
Description: To investigate whether or not MANF promotes proliferation of neural progenitor cells, the primary cultured neural progenitor cells are treated with MANF, and then proliferating cells were fluorescently stained with Ki67 antibody, neural progenitor cells with Nestin antibody, immature nerve cells with TuJ1, and mature neural cells with NeuN antibody.
Specifically, the neural progenitor cells were cultured in the same manner as in Example 1, and after removing all the mediums, they were washed once with PBS. After being fixed for 15 minutes with 4% PFA (paraformaldehyde) in PBS, they were washed twice with PBS again. After washing the cover slip to which the cells were attached with PBST, 0.5% Triton X-100-PBST was added thereto and reacted for 10 minutes. Again, blocking was performed with 2% BSA in PBST or 5% normal serum (Normal donkey serum: Jackson lab, 017-000-121, Normal horse serum: Sigma, H0146); and as primary antibodies, rb-Ki67(Abcam, AB15580, 1:500), mo-NeuN(Millipore, MAB377B, 1:500), mo-Tuj1(Sigma, T8660, 1:3000), mo-Flag(Sigma, F1804, 1:500), and mo-Nestin(Millipore, MAB353, 1:200) were added to 2% BSA in PBS and reacted overnight at 4° C. The next day, they were washed with PBST, and then, as secondary antibodies, mo-Alexa 488(Invitrogen, A21202, 1:700), mo-Cy3(Jackson lab, 715-165-151, 1:500), and rb-Alexa 488(Jackson lab, 711-546-152, 1:700) were added to PBST and reacted at room temperature for 1 hour. Cell nuclei were stained with DAPI (1 µg/mL, Sigma), mounted on slides, scanned with a confocal laser microscope, and photographed. Heo SR et al.(2009) and Han AM t al.(2012) were referred to in the above method.
In the case of cell count confirmation and data analysis, the number of cell nuclei labeled with DAPI and the number of cells stained with each differentiation marker were counted, respectively, and the number of each differentiation marker was expressed as a percentage of the number of cell nuclei. In this case, the number of cells that matched exactly in shape and location and had the shape of a nerve cell was counted. For example, in NeuN cell count measurement, the number of cells with a round shape in a nucleus and overlapping staining with DAPI was counted, and nonspecific signals appearing at the edge of the slide were not included. In data analysis, the control group and the experimental group were compared through one-way analysis of variance (ANOVA). The statistical significance of the data was set as p<0.05.

[2] = test system: hippocampal-derived neural stem cells; assay: Immunoblotting of differentiation markers (NeuN, GAD65/67, vGAT) in differentiating neural progenitor cells; format: cell-based, rat
Description: To determine the optimal dose of MANF to promote the expression of differentiation markers in neural progenitor cells, immunoblotting experiments were performed using NeuN antibody that labels the nuclei of mature neurons, glutamic acid decarboxylase (GAD65/67) and vesicular […] (vGAT) that label GABAergic nerve cells.
Specifically, hippocampal-derived neural stem cells were isolated from the brain of E16 rat embryos. Hippocampal ridges were minced from the embryonic forebrains of E16 rats using sterile fine tweezers under a dissecting microscope. The tissues were collected, mechanically separated using a pipette in Ca^2+/Mg^2+-freeHBSS (Invitrogen) solution, and planted at 19,000 cells/cm^2 in 35 mm culture dishes precoated with 15 µg/ml poly-L-ornithine and 1 µg/ml fibronectin (Sigma). The cells were cultured under the condition of 5% CO2 for 3 days using a serum-free N2 medium (medium for proliferation) supplemented with 10 ng/mL basic fibroblast growth factor(bFGF, Invitrogen). Thereafter, the cells were removed using 0.05% trypsin/EDTA (ethylene-diamine-tetraacetic acid), and neural progenitor cells were planted on a 12 mm glass coverglass (Belco) for immunostaining and on a 100 mm dish for immunoblotting and cultured in N2 medium for proliferation containing bFGF for 1 day. Thereafter, in the proliferation condition, the medium continuously containing bFGF was treated with MANF at the indicated concentration and cultured for 2-3 days; and in the differentiation condition, MANF was added to the medium for differentiation not containing bFGF, which was cultured for 3-7 days. In the control group (vehicle), physiological saline was added in the same volume instead of MANF.
After 3-7 days of differentiation of the cultured neural stem cells, the medium was removed and washed once with PBS (Phosphate-buffered saline). Then, all the cells were lysed using a lysis buffer to which a protease inhibitor was added. The lysate was loaded in a 10% gel in the same volume, then transferred to a PVDF (Polyvinylidene Fluoride) membrane and blocked with 2% BSA in TBST or 5% skim milk in TBST at room temperature for 1 hour. As primary antibodies, rb-GAD65/67 (1:1000), mo-NeuN (1:1000), mo-Vgat (1:700), and mo-actin (1:2000) were used, and the primary antibodies were diluted with 2% BSA in TBST, reacted at 4° C. for 16 hours, and then washed with […]. As secondary antibodies, mo-HRP (1:5000) and rb-HRP (1:5000) were used, and the secondary antibodies were diluted in 2% skim milk in TBST or 2% BSA in TBST, reacted for 1 hour, and then developed on films. As control antibodies, mo-tubulin (Millipore, 05-661, 1:2000) and mo-actin (Santa cruz, SC-47778, 1:2000) were used.

[3] = MANF at 30 ng (tested 10-50 ng/ml), differentiation condition, vs vehicle

B1: MANF: one of 16 or more growth factors secreted into nerve stem cells by cerebrovascular cells; amino acid sequence of SEQ ID NO: 1 (protein)
chain: MRRMWATQGLAVALALSVLPGSRALRPGDCEVCISYLGRFYQDLKDRDVTFSPATIENELIKFCREARGKENRLCYYIGATDDAATKIINEVSKPLAHHIPVEKICEKLKKKDSQICELKYDKQIDLSTVDLKKLRVKELKKILDDWGETCKGCAEKSDYIRKINELMPKYAPKAASARTDL
modifications: MANF
B1 was tested, and the Ki67-stained proliferating cells [1] was “significantly increased”, the “immature neural cells (TuJ1)” value [1] was “also increased, but there was no statistical significance” and the “mature neural cells (NeuN)” value [1] was “also increased, but there was no statistical significance”. For the same molecule, the “nestin-stained neural progenitor cells” value [1] was “significantly increased”, the “NeuN protein increase (immunoblotting)” value [2, 3] was 1.6 fold and the “amount of GAD65/67 protein increase (immunoblotting)” value [2, 3] was “about 2.5 fold”. The “amount of vGAT protein increase (immunoblotting)” value [2, 3] was “about 2.5 fold” and the “optimal dose of MANF (NeuN, GAD65/67 and vGAT protein all increased the most)” value ([2]; tested 10-50 ng/ml) was 30 ng/mL.
